Results on 14 sequences are retold here after the DeepSol protein solubility set.

The data set can be described thus: soluble on expression in E. coli; label from the status in PepcDB or PDB records.
In the case of “MGSDKIHHHHHHMMEMVNNSFRHGILFQEGKMEEARFIERPNRFTVRCALGSEILDAYLPNPGRLWELLLPDSVLYVVRRDVGQDRKLRGVVVAVEREGRPVMLHTLACNDIVADLLRQKRLPGFEGMNILQREIARGRSRFDFLLEQNGAPRLLEVKSCTLFGRCIAMFPDAVTLRGRRHLLELAELSRQGTPAHVLFLVHWPHADFFLPDYHTDFDFASTFLAVRDAVRFSALAVDWQPDMTPGAEIRELYIPWELLEREVQDSGCYLLVLHLPRNENVIPGGSTLLSLRKGYYVTVVSIRSGLTRHLQKSSRRRPGSENSRKSTVPDNLKAAADKILAIPIRTTEPLEAELNDALSRIADWSVPGFEARGDAGLAPVFGMAGPPLQRRAFVELLLDFRINRLEKFLARGAGSSAGPPVGNPSLEKIQ”, the “soluble on expression in E. coli” value is listed as “not soluble”.

With “MSLKPFGLFAICVAFAGCGDTSWWSKNDDPELKSEQIRKLIPSRVHDRQSWANDINDIMEKLKIPKTKDNVCSVVAIVDQESNFVANPVVAGLGEKAVKEVSTRLNEKFEEKLGTTIGGQVAGYFEDVLKNQPTPDDNYMSQMRRVRTEKDLDVLYRQIFDYMASHYHVSALTGAAKLVGQDIAEKMNPITTLGSMQVNIVYAKENKRVKLQSVNNLRDDLYTQYGGLYYGIHRLMLYQTSYDKPIYRFADYNSGMYSSRNAALQSMLNKLGDEQLTEDGDLLLYNKDGSIQSTRSSSEKALIKIFTLNNVLLTPNQIRTDLKQEKSQSFEQTPTYIAITKLYQKQTGKEAPYAMMPQVIISGPKLSRDYNTNWYASRVNGRYQTCMQRAKRIKEGHHHHHH”, the “soluble on expression in E. coli” value is “soluble”.

For “MSFRFLILLLLASTLLVNSFPIGKDNESDESEVEVDTTTEAENIEVESQEASLDEQLNEVSEDPTREKRGLYSSERTEEEVEISHGMHHREKRHSEHLPHPDPPSHTAKRSTEHHRVKRSEGHPHEKKATHSPEGHIVAKDDHHGHEKRSSDSHHGHQKRSVDEHHGHQKKNAEDHHEHQKRSEHVEHQAEMHEHQKRSTQEVSGHPEHHLVKRSGGEGGHRHHRSTDQGLDEDEPEDEIQTDENDEVTEEPGSRKRRNTDTPMPSFPSDHDSEHSNSVAIRVKRVSRAGSSHKVRTLNKNRGNSKAGETTQNDSLTPNSGGVFNS”, the “soluble on expression in E. coli” value is recorded as “not soluble”.

“MAKAFEEQRRSPDLEALPFEDRIGLLVDREAAERDTRRLTTRLKIAALRQTACVEDVDLRTPRGIDRAVFAKLVEGRWIDRHENLLVTGATGLGKSWLACALGHKACRDNRSVLYHRVPRLFEALALARGDGRYARLLKSLGRAQLLILDDWGLSVLTAAERRDLLEILEDRHGRASTIVTRQLPVDTWHGAIGDPTVADAILDRLVHNAHRLQLTGESMRKRSAKTITLDGQPEHAAALEHHHHHH”: the “soluble on expression in E. coli” value is recorded as “not soluble”.

For the sequence “MGSDKIHHHHHHMKKLICISLYEDLSMTTYDLSKVDNAELIGIVENASEGTLFVFTCDRPNGSSVIMCPGGGFLKTNLENEGIDFAEWFTKLGITYIVFKYRMPHGNPDVPEQDTRLALKVVREKFPEFCDKLGVMGASIGGYLATFSATLLPDDEKPDFQILMYPVVSVDDRLTHFPCRERMFGHSYSPDKMEQYSPIEHITSGTPAAFIVAAADDAVVSPLNGIMYAARLQKADIPISLHIYPAGGHGFGYNDSFVYKQEWLQELGEWLAKL”, the “soluble on expression in E. coli” value is “not soluble”.

As to “SLYDGDCPLCMREVNMLMERNEKHGTIKFVDISSNDYSPEDNQGLDYKTVMGQIHAIQSDGNVVKGVEAFRRLYEEVGLGWVYTITKFEPIGKLADVVYDVWAKYRLQVTGRPSIEAILEARKKDKVGNKGYRFSVVVTFAR”, the “soluble on expression in E. coli” value was “soluble”.

On to “MGSDKIHHHHHHMKKRFKYRTLEEMRWEAITLGIDLPLSGDFDVFRDLVDLGSKTIPNRFVDQPMEGNDAQLDGTPGPLTLRRYRKLAEGGAGVIWVEAIAVSREARGNDRQLMLTEETVNSFRSFVAEIKSVSLKTKNFEPYIVAQLTHPGRFGKNRKILFHDKFLDEKYGITEDFPLMSDEELDSLKEQYLRAAKFAKTAGFDAVDIKACHRYLLSELLAAHTREGKYGGSYENRTKLLKDIVRLVRKEVEIDITVRLNLSDFIPYPYGWGSTEEGTLDFTEPGRLLKELEELGVKIINVTASTPYLKPHINRPYDEMGKYNPPEHPIVGAMRLLNLAKLAKETLSKTLVVASGFTWFRQFAPYVAAGMLKNGWCDFVGFGRMTFAYPDYPKDILTKGELDPKKVCITCNKCAELKAAGESCGCVVRDGEVYLPIYRKMEESKKS”, for which the “soluble on expression in E. coli” value is “not soluble”.

Regarding “MAVPPTYVDLGKSARDIFTKGYGFGLIKLDLKTRSENGLEFKSSGSANTETSKVAGTLETKYKWAEHGLTFTEKWNTDNTLGTEITLEDQLTKGLKLTFDSSFSPNTGKKSGKIKSSYQREHINLGCDVDYDINGTAVHGALVLGLDGWLAGYQMTFEAGRNRITQSNFAVGYKTDEFQLHTNVNDGTEFGGSIYQKVNDNLETAVNLAWTAGNSNTRFGIAAKYQIDSDAAFSAKVNNSSLVGLGYTQTLKPGIKLTLSALLDGKNINAGGHKMGLGLEFEA”, the “soluble on expression in E. coli” value is “soluble”.

Regarding “MKSVMSNPTFRQDSIRMFRGRKPPQKGKPAMEIKSERSDSQHTLTITVPLGKASRNDQPPSNLTEEAAKKVAGTGRNDGKKVQFAEKLVNKTKSPSTGPSTSKKLQKSQKTQKSSKKSQKKSKKSKKSSKSK”, the “soluble on expression in E. coli” value is given as “not soluble”.

On to “MGSDKIHHHHHHMSVETKLTIDKEYVQSFSDARNEPQWFKDIRLKGFELVETLELPKPDKTKITSWNFTNFDHKLPEVSPVASIDELRDEVKGLIGEASDTQNLLVQRDATVVYSKLDEALKAKGVIFTDLLTAVKEHGDLVEKYYMKDAVKVDENRLTALHAALVNGGTFIYVPRNVEIEVPLQSVFWFDTEKAGLFNHVIIVAEDNSSITYVENYASFGSEEAVANIVVEVFAGANAKVSFGAVDNLAAGVTTYVVRRAHVGRDSRVEWALGQMNDGNTVSENTTHLLGDNSWADTKTVSVGRGEQKQNFTTQIFHHGKHSEGYILKHGVMREAATSIFNGISKIEHGATKSHGEQTERVLMLSEKARGDANPILLIDEDDVTAGHAASVGKIDPIQMFYLMSRGISRAEAERLVIHGFLAPVVGQLPIESVKERLVEAIERKVK”, for which the “soluble on expression in E. coli” value was “not soluble”.

“MGSDKIHHHHHHMILAAKNSVFVHIRRGDYVGIGCQLGIDYQKKALEYMAKRVPNMELFVFCEDLEFTQNLDLGYPFMDMTTRDKEEEAYWDMLLMQSCQHGIIANSTYSWWAAYLIENPEKIIIGPKHWLFGHENILCKEWVKIESHFEVKSQKYNA”: the “soluble on expression in E. coli” value is given as “not soluble”.

Consider “MAGHSKWAQIKRKKAANDLKRGKLISKHLRAIQAAARAGGSPYPEANVQLRNAIEAARADDVPMENIERLLQKLQGGGEGAEQYEEIVYEGYAPGGVALLVYALTDNRNRTASEVRHVFSKHGGSLGTTGSVAWQFERRGVVVCENTEAAQEAAIELGALDLEEEGENLTVYTEPTEAYRIAEALKAKGVRVEAVEVVQHPQNTVALPPEEAQKVMRLVEALEDLDDVQHVYTNLDPESLQVEA”, for which the “soluble on expression in E. coli” value is “soluble”.

For “MGSDKIHHHHHHMAERFRPLAMAGLAALALVLAGCGDTLESFGGPTMGSTYSIKYVRGASAPDVQTAKAAVEAILAEVDRQMSTYRDDSLVSRFNALPAQSCMELPLPMLELLRYGGELSEQSQGAFDMTVEPLMNLWGFGPQARVEKVPSAEQIAAVRRDVGHRHLRIDGQRLCKDAAVQLDFDSIAAGYTVDAVGERLKELGVRSYLAEITGELKAEGRKPDGTPWRIAIEAPREGQRVAQQVLALDGYGVSTSGDYRNYFEENGQRYSHTFDPRTGAPIDHHLASVTVIDPSTRNADGLSTLLMVLGPEEGYRFAEKHRLAALFVSRQGNGFDSRTTPRYEQLFGNQGERP”, the “soluble on expression in E. coli” value is “not soluble”.

Consider “LALMSAAKLPKSFVWGYATAAYQIEGSPDKDGREPSIWDTFCKAPGKIADGSSGDVATDSYNRWREDVQLLKSYGVKAYRFSLSWSRIIPKGGRSDPVNGAGIKHYRTLIEELVKEGITPFVTLYHWDLPQALDDRYGGWLNKEEAIQDFTNYAKLCFESFGDLVQNWITFNEPWVISVMGYGNGIFAPGHVSNTEPWIVSHHIILAHAHAVKLYRDEFKEKQGGQIGITLDSHWLIPYDDTDASKEATLRAMEFKLGRFANPIYKGEYPPRIKKILGDRLPEFTPEEIELVKGSSDFFGLNTYTTHLVQDGGSDELAGFVKTGHTRADGTQLGTQSDMGWLQTYGPGFRWLLNYLWKAYDKPVYVTENGFPVKGENDLPVEQAVDDTDRQAYYRDYTEALLQAVTEDGADVRGYFGWSLLDNFEWAEGYKVRFGVTHVDYETQKRTPKKSAEFLSRWFKEHIEE”, for which the “soluble on expression in E. coli” value is listed as “soluble”.
